Laboratory results published in article PMC11200690 (Antibodies, 2024).

Target: T1, recombinant human HER2 ECD protein (Homo sapiens, UniProt P04626)
T1 construct: human epidermal growth factor receptor-2 (HER2, Erbb2), extracellular domain; also called HER2 antigen; Erbb2; source: bought: SinoBiological (10004-H08H)
Assay: BLI; scFv formats against HER2 ECD; set-up not told (Figure S2)
Details: both partners purified

- Kd: 9 nM
B1: Ab8 scFv (scFv, V domains shown)
VH: QVQLGESGGGVVRPGGSLRLSCAASGFTFSSYAMSWVRQAPGKGLEWVSAISGSGGSTYYADSVKGRFTISRENAKNSLYLQMNSLRAEDTAVYYCARRGGVWAFDIWGQGTMVTVSS
VL: DVVMTQSPLSLPVTPGEPASISCRSSQSLLHSNGINYLDWYLQKPGQSPQLLIYLGSSRASGVPDRFSGSGSGTDFTLKISRVEAEDVGVYFCMQALQTPLTFGQGTKLEIK
notes: as the VH of m1; as the VL of m1; also called scFv Ab8; ScFv of Ab8; source: HB2151 cells (pComb3x plasmid), purified (Ni-NTA); not shown: Flag, C-terminal, kept
